Data reported in patent publication US20240301061A1 (BEIGENE SWITZERLAND, published 2024).

T1: human claudin 6 (CLDN6) (human, UniProt P56747 1-220)
T1 construct: also called human CLDN6; hCLDN6
T1 sequence: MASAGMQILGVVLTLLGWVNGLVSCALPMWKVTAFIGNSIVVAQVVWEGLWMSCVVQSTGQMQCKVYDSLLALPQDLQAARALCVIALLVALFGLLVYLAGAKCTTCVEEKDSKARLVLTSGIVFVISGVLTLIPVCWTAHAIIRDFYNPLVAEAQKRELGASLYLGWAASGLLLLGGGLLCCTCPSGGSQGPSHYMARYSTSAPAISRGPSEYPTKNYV


How the values were obtained:
[1] = target: T1, human claudin 6 (CLDN6); assay: flow cytometry, HEK293T-human CLDN6 cells; ratio to chBG87P
Experimental: (§1) For affinity determination, CLDN6 over-expressing HEK293T cells and cancer cell line PA-1 which express high levels of human CLDN6 were used to evaluate the binding activity of BG87P related engineering variants. Live cells were seeded in 96-well plate, and were incubated with a series of dilutions of chBG87P and engineered variants thereof. Goat anti-human IgG was used as second antibody to detect antibody binding to the cell surface. EC50 values for dose-dependent binding to CLDN6 expressing cell lines were determined by fitting the dose-response data to the four-parameter logistic model with GraphPad Prism. Cell binding activity of 1st round of BG87P humanization variants against HEK293T/human CLDN6 were compared to chBG87P and shown in FIG. 1A.

[2] = target: T1, human claudin 6 (CLDN6); assay: flow cytometry, PA-1 cells; ratio to chBG87P
Experimental: as §1

[3] = target: T1, human claudin 6 (CLDN6); assay: flow cytometry, HEK293-hCLDN6 cells; ratio to chBG87P
[4] = target: T1, human claudin 6 (CLDN6); assay: flow cytometry, HEK293T-hCLDN6 cells; ratio to chBG87P
[5] = target: T2, cyno CLDN6 (cyno); assay: flow cytometry, HEK293T-cyno-CLDN6 cells; ratio to chBG87P
T2 construct: whole, on cells; also called cynomolgus CLDN6

| Binder | Emax ratio to BG87P [1] | Emax ratio to BG87P [2] | FACS-Ec50 ratio to BG87P [3] | FACS Emax ratio to BG87P [4] | FACS Emax ratio to BG87P [5] |
| --- | --- | --- | --- | --- | --- |
| BG87P-25 (antibody, V domains shown) VH: QIQLVQSGAEVKKPGASVKVSCKASGYSFTDYHINWVRQAPGQRLEWMGWIYPGSGYTKYNEKFKGRVTLTRDTSASTAYMELSSLRSEDTAVYYCARSGIYHYVSSYYFDHWGKGTTVTVSS VL: DIQMTQSPSTLSASVGDRVTITCKASQDVGTAVAWYQQKPGKAPKLLIYWASTRHTGVPSRFSGSGSGTEFTLTISSLQPDDFATYYCQQYSSYTFGGGTKVEIK | 0.74 | 0.59 |  |  |  |
| BG87P-26 (antibody, V domains shown) VH: QIQLVQSGAEVKKPGASVKVSCKASGYSFTDYHINWVRQAPGQRLEWMGWIYPGSGYTKYNEKFKGRVTITRDTSASTAYMELSSLRSEDTAVYFCARSGIYHYVSSYYFDHWGKGTTVTVSS VL: DIQMTQSPSTLSASVGDRVTITCKASQDVGTAVAWYQQKPGKAPKLLIYWASTRHTGVPSRFSGSGSGTEFTLTISSLQPDDFATYYCQQYSSYTFGGGTKVEIK | 0.77 | 0.54 |  |  |  |
| BG87P-27 (antibody, V domains shown) VH: QVQLVQSGAEVKKPGASVKVSCKASGYSFTDYHINWVRQAPGQRLEWMGWIYPGSGYTKYNEKFKGRVTLTRDTSASTAYMELSSLRSEDTAVYFCARSGIYHYVSSYYFDHWGKGTTVTVSS VL: DIQMTQSPSTLSASVGDRVTITCKASQDVGTAVAWYQQKPGKAPKLLIYWASTRHTGVPSRFSGSGSGTEFTLTISSLQPDDFATYYCQQYSSYTFGGGTKVEIK | 0.68 | 0.53 |  |  |  |
| BG87P-z0 (antibody, V domains shown, Humanized, no back mutations; also called BG87P-20) VH: QVQLVQSGAEVKKPGASVKVSCKASGYTFTDYHINWVRQAPGQRLEWMGWIYPGSGYTKYNEKFKVRVTITRDTSASTAYMELSSLRSEDTAVYYCARSGIYHYVSSYYFDHWGKGTTVTVSS VL: DIQMTQSPSTLSASVGDRVTITCKASQDVGTAVAWYQQKPGKAPKLLIYWASTRHTGVPSRFSGSGSGTEFTLTISSLQPDDFATYYCQQYSSYTFGGGTKVEIK | 0.5 | 0.43 |  |  |  |
| BG87P-32 (antibody, V domains shown, Solubility engineering variant of BG87P-21) VH: QVQLQQSGAETKKPGASVKVSCKASGYSFTDYHINWVRQASGQRLEWMGYIYPGSGHTKKNEKFKGRVTITRDTSASTAYMELSSLRSEDTAVYYCARSGIYHYVSSYYFDHWGKGTTVTVSS VL: DIQMTQSPSTLSASVGDRVTITCKASQDAGSAVAWYQQKPGKAPKLLIYWASTRHTGVPSRFSGSGSGTEFTLTISSLQPDDFATYYCQQYSSYTFGGGTKVEIK |  |  | 1.31 | 0.63 |  |
| BG87P-31 (antibody, V domains shown, Solubility engineering variant of BG87P-21) VH: QVQLQQSGAETKKPGASVKVSCKASGYSFTDYHINWVRQASGQRLEWMGYIYPGSGHTKKNEKFKGRVTITRDTSASTAYMELSSLRSEDTAVYYCARSGIYHYVSSYYFDHWGKGTTVTVSS VL: DIQMTQSPSTLSASVGDRVTITCKASQDAGSAVAWYQQKPGKAPKLLIKWASTRHTGVPSRFSGSGSGTEFTLTISSLQPDDFATYYCQQYSSYTFGGGTKVEIK |  |  | 1.6 | 0.76 |  |
| BG87P-33 (antibody, V domains shown, Framework-swapped variant; also called BG87-33) VH: EVQLQESGGGLVQPGGSLRLSCAASGYSFTDYHINWVRQAPGKGLEWVSYIYPGSGHTKYNEKFKGRFTISRDTSKNTAYLQMNSLRAEDTAVYYCARSGIYHYVSSYYFDHWGQGTLVTVSS VL: DIQMTQSPSTLSASVGDRVTITCKASQDAGSAVAWYQQKPGKAPKLLIYWASTRHTGVPSRFSGSGSGTEFTLTISSLQPDDFATYYCQQYSSYTFGGGTKVEIK |  |  | 2.45 | 0.91 | 0.75 |
| BG87P-34 (antibody, V domains shown, Final lead anti-CLDN6 clone (IGHV3-23 / IGKV1-39 framework); also called BG87-34) VH: EVQLQESGGGLVQPGGSLRLSCAASGYSFSDYHINWVRQAPGKGLEWVGYIYPGSGHTKYNEKFKGRFTISRDTSSNTAYLQMNSLRAEDTAVYYCARSGIYHYVSSYYFDHWGQGTLVTVSS VL: DIQMTQSPSSLSASVGDRVTITCKASQDAGSAVAWYQQKPGKAPKLLIYWASTRHTGVPSRFSGSGSGTDFTLTISSLQPEDFATYYCQQYSSYTFGGGTKLEIK |  |  | 1.17 | 1.03 | 1 |
